Experimental data reported in US20150044236A1.
No end group written: not given here.

Columns and labels:
[1] = biological target: human Kv1.3 voltage-gated potassium channel (human) (UniProt P22001); experiment: cell-based or functional assay
[2] = biological target: human Kv1.1 voltage-gated potassium channel (human) (UniProt Q09470); experiment: cell-based or functional assay
[3] = biological target: DNP(3)-BSA (2,4-dinitrophenol conjugated to bovine serum albumin, 3 DNP moieties per BSA) (bovine) (UniProt P02769); experiment: BIAcore SPR; antibody captured on anti-human IgG Fc surface, DNP(3)-BSA injected (0.78-100 nM); apparent constants; DNP(3)-BSA, not DNP(31)-BSA
Sequence of DNP(3)-BSA (2,4-dinitrophenol conjugated to bovine serum albumin, 3 DNP moieties per BSA) (bovine) (P02769 25-607 limits assumed): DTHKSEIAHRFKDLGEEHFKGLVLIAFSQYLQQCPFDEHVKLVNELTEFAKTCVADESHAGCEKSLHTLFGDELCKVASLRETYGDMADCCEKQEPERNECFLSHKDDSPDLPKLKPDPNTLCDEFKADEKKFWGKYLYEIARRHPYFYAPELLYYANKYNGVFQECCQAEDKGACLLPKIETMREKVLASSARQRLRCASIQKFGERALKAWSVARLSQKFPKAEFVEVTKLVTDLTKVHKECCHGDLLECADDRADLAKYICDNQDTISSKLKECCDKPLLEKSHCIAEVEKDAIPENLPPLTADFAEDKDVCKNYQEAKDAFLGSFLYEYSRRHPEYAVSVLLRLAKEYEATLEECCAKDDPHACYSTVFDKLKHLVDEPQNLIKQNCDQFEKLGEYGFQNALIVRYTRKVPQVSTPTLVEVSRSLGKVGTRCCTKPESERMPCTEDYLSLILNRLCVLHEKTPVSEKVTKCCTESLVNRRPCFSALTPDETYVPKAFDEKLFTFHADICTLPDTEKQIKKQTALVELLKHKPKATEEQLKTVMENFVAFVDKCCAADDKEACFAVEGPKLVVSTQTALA

[4] = biological target: DNP(3)-BSA (2,4-dinitrophenol conjugated to bovine serum albumin, 3 DNP moieties per BSA) (bovine) (UniProt P02769); experiment: BIAcore SPR; antibody captured on anti-human IgG Fc surface, DNP(3)-BSA injected (0.78-100 nM); apparent constants
[5] = biological target: DNP(31)-BSA (2,4-dinitrophenol conjugated to bovine serum albumin, 31 DNP moieties per BSA) (bovine) (UniProt P02769); experiment: BIAcore SPR; antibody captured on anti-human IgG Fc surface, DNP(31)-BSA injected (0.78-100 nM); apparent constants
Sequence of DNP(31)-BSA (2,4-dinitrophenol conjugated to bovine serum albumin, 31 DNP moieties per BSA) (bovine) (P02769 25-607 limits assumed): as above

[6] = biological target: DNP(31)-BSA (2,4-dinitrophenol conjugated to bovine serum albumin, 31 DNP moieties per BSA) (bovine) (UniProt P02769); experiment: BIAcore SPR; antibody captured on anti-human IgG Fc surface, DNP(31)-BSA injected (0.39-50 nM); apparent constants

Sequence of human Kv1.3 voltage-gated potassium channel (human) (P22001 whole entry): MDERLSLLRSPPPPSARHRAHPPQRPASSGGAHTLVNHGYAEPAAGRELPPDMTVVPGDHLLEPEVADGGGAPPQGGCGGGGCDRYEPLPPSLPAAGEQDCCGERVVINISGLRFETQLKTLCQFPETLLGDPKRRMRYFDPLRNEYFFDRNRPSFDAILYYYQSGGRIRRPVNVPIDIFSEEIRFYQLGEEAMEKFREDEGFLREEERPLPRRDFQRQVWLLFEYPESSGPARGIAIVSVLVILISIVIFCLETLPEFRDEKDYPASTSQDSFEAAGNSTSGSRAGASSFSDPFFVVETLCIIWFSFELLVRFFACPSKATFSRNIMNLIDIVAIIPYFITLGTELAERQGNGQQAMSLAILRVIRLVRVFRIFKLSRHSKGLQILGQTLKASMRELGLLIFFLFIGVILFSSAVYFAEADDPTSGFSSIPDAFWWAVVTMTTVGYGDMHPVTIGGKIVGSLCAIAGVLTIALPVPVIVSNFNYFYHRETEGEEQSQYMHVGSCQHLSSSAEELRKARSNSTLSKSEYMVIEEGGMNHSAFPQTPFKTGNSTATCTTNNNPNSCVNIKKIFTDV
Sequence of human Kv1.1 voltage-gated potassium channel (human) (Q09470 whole entry): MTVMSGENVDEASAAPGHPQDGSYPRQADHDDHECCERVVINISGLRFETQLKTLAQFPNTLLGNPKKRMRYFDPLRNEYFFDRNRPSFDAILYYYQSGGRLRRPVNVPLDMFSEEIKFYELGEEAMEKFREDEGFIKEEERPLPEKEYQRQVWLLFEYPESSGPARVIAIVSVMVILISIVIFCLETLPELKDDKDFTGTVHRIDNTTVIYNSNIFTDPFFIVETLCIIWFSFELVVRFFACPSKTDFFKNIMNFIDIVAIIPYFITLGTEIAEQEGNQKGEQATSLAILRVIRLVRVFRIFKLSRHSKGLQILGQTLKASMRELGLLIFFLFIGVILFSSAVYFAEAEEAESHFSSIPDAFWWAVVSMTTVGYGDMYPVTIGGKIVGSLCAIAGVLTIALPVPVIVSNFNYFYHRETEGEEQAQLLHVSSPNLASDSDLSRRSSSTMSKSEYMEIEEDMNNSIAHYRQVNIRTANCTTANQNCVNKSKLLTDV

Molecule	Kv1.3 IC50 (asterisk: whole cell patch clamp) [1]	Potency Relative to ShK (WB, IL2) [1]	Kv1.1 IC50 (asterisk: whole cell patch clamp) [2]	WB (IFNg) IC50 [1]	WB (IL-2) IC50 [1]	also measured
20 kDa-PEG-ShK (peptide)	0.299 nM	5.67 fold	1.63 nM			
20 kDa-PEG-[Lys16]ShK (peptide)		1.37 fold				
Monovalent Fc/Fc-L10-ShK[2-35] heterodimer (IgG1) (Fc fusion)		32.1 fold		5.2 nM	2.15 nM	
GGGGSGGGGSRSCIDTIPKSRCTAFQCKHSMKYRLSFCRKTCGTC (Fc fusion, not fully specified (N-terminus, bridges); ends and bridges not checked; also: bivalent homodimer via IgG1 Fc) [Bivalent Fc-L10-ShK[1-35] homodimer (IgG1)]	0.015 nM	5.76 fold	0.067 nM	0.32 nM	0.386 nM	
GGGGSGGGGSSCIDTIPKSRCTAFQCKHSMKYRLSFCRKTCGTC (Fc fusion, not fully specified (N-terminus, bridges); ends and bridges not checked; also: bivalent homodimer via IgG1 Fc) [Bivalent Fc-L10-ShK[2-35] homodimer (IgG1)]	0.116 nM	8.73 fold	0.411 nM	2.29 nM	0.585 nM	
anti-DNP antibody 3A1 (purified from hybridoma) (antibody, human IgG2, kappa, V domains shown) VH: QVQLQESGPGLVKPSETLSLTCTVSGGSISHYYWSWIRQPPGKGLGWIGYIYYSGSTNYNPSLKSRVTISVDTSKNQFSLKLTSVTAADTAVYYCARARGDGYNYPDAFDIWGQGTMVTVSS VL: DIQMTQSPSSVSASVGDRVTITCRASQGISNWLAWYQRKPGKAPKLLIYAASSLQSGVPSRFSGSGSGTDFTLTISSLQPEDFAAYYCQQASSFPWTFGQGTRVEIKR						kon [3]: 1200 M⁻¹ s⁻¹; Kd [4]: 526 nM; koff [4]: 0.00065 s⁻¹; Kd [5]: 9 nM; koff [5]: 0.00031 s⁻¹; kon [5]: 34000 M⁻¹ s⁻¹
anti-DNP antibody 3B1 (purified from hybridoma) (antibody, human IgG2, kappa, V domains shown) VH: QVQLQESGPGLVKPSETLSLTCTVSGGSISSYYWSWIRQPPGKGLEWIGYIYYSGNTNSNPSLKSRVTISVDTSKNQFSLKLSSVTAADTAVYYCARTYYDSSGYYYRAFDIWGQGTMVTVSS VL: DIQMTQSPSSLSASEGDRVTITCRASQGIRNDLGWYQQKPGKAPKRLIYAASSLQSGVPLRFSGSGSGTEFTLTISSLQPEDFATYYCLQYNSYPWTFGQGTKVEIKR						Kd [4]: 3 nM; koff [4]: 0.00036 s⁻¹; kon [4]: 140000 M⁻¹ s⁻¹; Kd [5]: 0.2 nM; koff [5]: 5.8e-05 s⁻¹; kon [5]: 370000 M⁻¹ s⁻¹
anti-DNP antibody 3B1-G2 (recombinant, CHO) (antibody, human IgG2, kappa, V domains shown) VH: QVQLQESGPGLVKPSETLSLTCTVSGGSISSYYWSWIRQPPGKGLEWIGYIYYSGNTNSNPSLKSRVTISVDTSKNQFSLKLSSVTAADTAVYYCARTYYDSSGYYYRAFDIWGQGTMVTVSS VL: DIQMTQSPSSLSASEGDRVTITCRASQGIRNDLGWYQQKPGKAPKRLIYAASSLQSGVPLRFSGSGSGTEFTLTISSLQPEDFATYYCLQYNSYPWTFGQGTKVEIKR						Kd [6]: 0.7 nM; koff [6]: 0.00031 s⁻¹; kon [6]: 420000 M⁻¹ s⁻¹
